Results reported in publication PMC4970318.
Each block holds one binder with its values, some of them ahead of it.

Tests used:
RD3 = assay: competition
FD3 = assay: competition
RD2 = assay: competition
FD2 = assay: competition
CAT = assay: competition
[1] = biological target: LPA2 6-mer (Homo sapiens); assay: competition
FD1 = assay: competition
CST = assay: competition
RD1 = assay: competition
[2] = biological target: LPA2 10-mer (Homo sapiens)
[3] = biological target: Claudin23 10-mer (Homo sapiens)

Kd (FD2 8-mer): 3.6 µM
Ki (RD3): 4.6 µM
Ki (FD3): 9.1 µM
Ki (RD2): 12.5 µM
Ki (FD2): 6.8 µM
Ki (CAT): 254 µM
Ki [1]: 28.4 µM
Ki (FD1): 14.2 µM
Ki (CST): 54.8 µM
Ki (RD1): 5.4 µM
Kd [2]: 11.5 µM
B1: NHERF-2 PDZ2 (N2P2) PDZ2, Q15599 (protein)
chain: LRPRLCHLRKGPQGYGFNLHSDKSRPGQYIRSVDPGSPAARSGLRAQDRLIEVNGQNVEGLRHAEVVASIKAREDEARLLVVDPETD

Kd [3]: 3.6 µM
Ki (RD3): 6.8 µM
Ki (FD3): > 1000 µM
Ki (RD2): 2.7 µM
Ki (FD2): > 1000 µM
Ki [1]: 47.4 µM
Ki (FD1): 600 µM
Ki (RD1): 1.8 µM
B2: MAGI-3 PDZ6 (M3P6) PDZ6, Q5TCQ9 (protein)
chain: GCYPVELERGPRGFGFSLRGGKEYNMGLFILRLAEDGPAIKDGRIHVGDQIVEINGEPTQGITHTRAIELIQAGGNKVLLLLRPGTGLI
